Experiment [1] concerns the target T1, TACI stably expressed on Ad293 cells (Homo sapiens (Human), UniProt O14836 1-293).
T1 sequence: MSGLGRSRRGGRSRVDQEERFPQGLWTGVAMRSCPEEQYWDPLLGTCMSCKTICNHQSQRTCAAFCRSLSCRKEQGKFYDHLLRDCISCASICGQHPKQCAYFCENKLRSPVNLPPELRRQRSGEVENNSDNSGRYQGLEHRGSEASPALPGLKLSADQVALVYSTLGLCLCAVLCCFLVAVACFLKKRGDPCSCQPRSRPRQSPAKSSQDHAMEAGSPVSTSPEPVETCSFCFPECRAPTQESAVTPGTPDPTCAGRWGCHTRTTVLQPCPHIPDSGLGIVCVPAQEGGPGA
In words: FACS on Ad293 cells stably expressing TACI, Alexa Fluor 647 secondary antibody, raw MFI (geo mean). The method, then: (§1) Antibodies 4679, 756, and 15B2GL (as described below) were analyzed by FACS to evaluate binding of antibodies to human BCMA, cynomolgus monkey BCMA, TACI, and BAFF-R using recombinant forms of the receptors stably expressed on Ad293 cells. Binding assays were performed by incubating antibodies 4679, 756, and 15B2GL with 200,000 cells at 4° C. for 45 minutes followed by two washes with PBS+2% FBS. Cells were then incubated with Alexa-Fluor® 647-labeled secondary antibodies at 4° C., followed by two washes in PBS+2% FBS. Anti-BAFF-R, anti-TACI, and anti-human BCMA-APC labeled antibodies were added according to manufacturer's recommended dilution in control wells. Cells were resuspended in 200 uL PBS+2% FBS+DAPI and antibody binding to live cells was analyzed using a Becton Dickinson™ Biosciences LSRII cytometer.

Experiment [2] deals with T2, membrane-bound human BCMA (human, UniProt Q02223 1-184).
T2 construct: whole, on cells; also called huBCMA
T2 sequence (looked up): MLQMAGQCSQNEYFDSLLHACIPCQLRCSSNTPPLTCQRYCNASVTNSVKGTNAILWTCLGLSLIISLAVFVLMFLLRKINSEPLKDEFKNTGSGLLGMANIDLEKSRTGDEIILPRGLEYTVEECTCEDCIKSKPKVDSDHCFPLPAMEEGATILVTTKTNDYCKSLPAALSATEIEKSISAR
The experiment in a line: flow cytometry on Ad293 cells expressing human BCMA, printed as apparent affinity. The method, then: (§2) Binding of 15B2GL, I09, L15, and J6M0 to membrane-bound human BCMA was evaluated using flow cytometry in multiple myeloma and plasma cell leukemia cell lines that endogenously express BCMA (NCI-H929 and MM.1S, respectively). Binding of 15B2GL, 109, L15 to membrane-bound human BCMA was also evaluated in Ad293 cells expressing human BCMA. Binding assays were performed by incubating the anti-BCMA antibodies with 200,000 cells for 30 minutes at 4° C. followed by two washes with PBS+2% FBS (FACS Buffer). A range of antibody concentrations were evaluated using a 12-point, 3-fold dilution series. Cells were then incubated with 5 ug/mL goat-anti human IgG-AF647 secondary antibodies (Thermo Fisher Scientific, Waltham, Mass.) at 4° C., followed by two washes in PBS+2% FBS. Cells were resuspended in 200 uL PBS+2% FBS+DAPI.
(§3) Fluorescence of live, single cells was measured using a BD Biosciences LSRII cytometer and BD FACSDiva™ software (BD Biosciences, San Jose, Calif.). Data were analyzed using FlowJo™ software (FlowJo, LLC, Ashland, Oreg.). Mean fluorescence intensity values were used to determine percentage bound and EC50 was determined using Prism™ software (GraphPad Software Inc, La Jolla, Calif.).

Experiment [3] addresses T3, monomeric human sBCMA (GenScript) (human, UniProt Q02223 1-54).
T3 construct: extracellular domain; also called monomeric BCMA; monomeric (soluble) BCMA
T3 sequence (looked up): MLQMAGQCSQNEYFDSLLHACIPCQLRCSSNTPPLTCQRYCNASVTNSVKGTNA
In words: SPR (ProteOn XPR36), antibody captured by anti-Fc, sBCMA 100-6.25 nM as analyte. Here is the method: The binding of 15B2GL monoclonal antibody and optimized clones I09, L15, P10, N22, and M02 (described in Example 1) was assessed using monomeric human sBCMA (GenScript, Piscataway, N.J.) using a ProteOn™ XPR36 instrument (Bio-Rad, Hercules, Calif.). The binding of J6M0 also was assessed for comparison. Standard amine coupling was used to immobilize 25 μg/ml anti-Fc polyclonal antibody (Jackson ImmunoResearch, West Grove, Pa.) prepared in 10 mM sodium acetate buffer (pH 4.5) to the surface of a ProteOn™ GLC biosensor chip (Bio-Rad, Hercules, Calif.) pre-activated with 20 mM EDAC (1-ethyl-3-(3-dimethylaminopropyl)carbodiimide hydrochloride) and 5 mM Sulfo-NHS (N-hydroxysulfosuccinimide) at a density of ˜200-600 resonance units (RU). 15B2GL, I09, L15, P10, N22, M02, and J6M0 were subsequently injected at a concentration of 1 μg/ml for capture by the immobilized anti-Fc polyclonal antibody. The sensorgram was recorded by flowing two-fold serial dilutions of sBCMA prepared in PBS (pH 7.4) with 0.005% (v/v) Tween®-20, ranging from 100-6.25 nM, over the captured surface for 150 seconds at 75 μL/minute with dissociation time of 600 seconds. ProteOn™ data analysis software was used to analyze the data.

The target of experiment [4] is T2, membrane-bound human BCMA. In words: FACS on Ad293 cells stably expressing human BCMA, Alexa Fluor 647 secondary antibody, raw MFI (geo mean). Here is the method:
as §1

Experiment [5] deals with T4, BAFF-R stably expressed on Ad293 cells (Homo sapiens (Human), UniProt Q96RJ3 1-184).
T4 sequence: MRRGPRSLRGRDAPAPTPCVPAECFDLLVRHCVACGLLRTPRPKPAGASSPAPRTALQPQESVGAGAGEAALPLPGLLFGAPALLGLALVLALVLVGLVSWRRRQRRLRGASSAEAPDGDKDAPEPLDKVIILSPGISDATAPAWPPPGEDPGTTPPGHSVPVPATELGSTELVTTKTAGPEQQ
The experiment in a line: FACS on Ad293 cells stably expressing BAFF-R, Alexa Fluor 647 secondary antibody, raw MFI (geo mean). The method, then:
as §1

For experiment [6], the target named is T5, cynomolgus monkey BCMA stably expressed on Ad293 cells (cynomolgus monkey, UniProt A0A2K5UD97 1-183).
T5 construct: whole, on cells; also called cynoBCMA; Cyno BCMA
T5 sequence (A0A2K5UD97 entry or part of it): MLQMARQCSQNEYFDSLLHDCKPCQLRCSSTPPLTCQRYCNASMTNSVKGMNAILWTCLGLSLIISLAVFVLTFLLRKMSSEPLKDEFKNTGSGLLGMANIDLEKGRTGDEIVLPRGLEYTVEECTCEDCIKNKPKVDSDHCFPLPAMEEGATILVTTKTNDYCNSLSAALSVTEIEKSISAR
In words: FACS on Ad293 cells stably expressing cynomolgus BCMA, Alexa Fluor 647 secondary antibody, raw MFI (geo mean). The method, then:
as §1

The target in experiment [7] is T2, membrane-bound human BCMA. In words: flow cytometry on MM.1S cells (endogenous BCMA), printed as apparent affinity. Here is the method:
as §2, §3

For experiment [8], the target named is T2, membrane-bound human BCMA. The experiment in a line: flow cytometry on NCI-H929 cells (endogenous BCMA), printed as apparent affinity. Here is the method: as §2, §3
Background: In flow cytometry, cells or beads pass a laser one at a time.

B1: 15B2GL monoclonal antibody (antibody, V domains shown)
VH: EVQLVESGGGLVKPGGSLRLSCAASGFTFRSYSMNWVRQAPGKGLEWVSSISGSSNYIYYADSVKGRFTISRDNAKNSLYLQMNSLRAEDTAVYYCARGGNYYVEYFQYWGQGTLVTVSS
VL: EIVLTQSPGTLSLSPGERATLSCRASQYISSNYLAWYQQKPGQAPRLLIYGASNRATGIPDRFSGSGSGTDFTLTISRLEPEDFAVYYCQQYGSSPITFGQGTKLEIK
notes: Clone 15B2 was converted into human IgG1 and germlined at four residues (15B2GL); also called germlined 15B2
Broadly, the EC50 is the midpoint of the concentration-response curve. Broadly, the Kd is the free concentration of one partner at which half of the binding sites on the other are occupied at equilibrium, for simple one-to-one binding. The EC50 (read off the curve) is the concentration giving half of the maximal effect. On to B1, for which the binding result in experiment [1] and in experiment [5] was “no binding (tested: 100 ug/mL)” throughout. For the same molecule, the EC50 in experiment [2] was 3.87 nM; in experiment [7], 2.56 nM; in experiment [8] it was 3.14 nM. This molecule gave a Kd in experiment [3] of 60.7 nM. Besides, the “EC50 (read off the curve)” value in experiment [4] was around 0.6 µg/mL; in experiment [6], around 1 µg/mL.

B2: L15 (lead optimized clone of 15B2GL) (antibody, V domains shown)
VH: EVQLVESGGGLVKPGGSLRLSCAASGFTFSSYSMNWVRQAPGKGLEWVSSISGQSNYIYYADSVKGRFTISRDNAKNSLYLQMNSLRAEDTAVYYCARGGNYFVEYFQYWGQGTLVTVSS
VL: EIVLTQSPGTLSLSPGERATLSCRASQYISSNNLAWYQQKPGQAPRLLIYGASNRATGIPDRFSGSGSGTDFTLTISRLEPEDFAVYYCQQYADSPITFGQGTKLEIK
notes: Cloned into an IgG mammalian expression vector ("Maia") designed for ADC conjugation
For the molecule B2, the values for the half-maximal effective concentration (EC50) in experiment [2], in experiment [7] and in experiment [8] were 4.48 nM, 4.2 nM and 4.2 nM, respectively. The Kd in experiment [3] was determined as 4.5 nM.

B3: M02 (lead optimized clone of 15B2GL) (antibody, V domains shown)
VH: EVQLVESGGGLVKPGGSLRLSCAASGFTFSSYSMNWVRQAPGKGLEWVSSISGQSNYIYYADSVKGRFTISRDNAKNSLYLQMNSLRAEDTAVYYCARGGNYYVEYFQYWGQGTLVTVSS
VL: EIVLTQSPGTLSLSPGERATLSCRASQYISSNNLAWYQQKPGQAPRLLIYGASNRATGIPDRFSGSGSGTDFTLTISRLEPEDFAVYYCQQYSSDPITFGQGTKLEIK
notes: as for B2
Turning to B3, in experiment [3], the Kd was 9.9 nM.

B4: I09 (lead optimized clone of 15B2GL) (antibody, V domains shown)
VH: EVQLVESGGGLVKPGGSLRLSCAASGFTFSSYSMNWVRQAPGKGLEWVSSISGSSNYIYYADSVKGRFTISRDNAKNSLYLQMNSLRAEDTAVYYCARGGNYFVEYFQQWGQGTLVTVSS
VL: EIVLTQSPGTLSLSPGERATLSCRASQYISSNYLAWYQQKPGQAPRLLIYGASNRATGIPDRFSGSGSGTDFTLTISRLEPEDFAVYYCQQYSSDPITFGQGTKLEIK
notes: Cloned into an IgG mammalian expression vector ("Maia") designed for ADC conjugation; also called 109 [sic]
For the molecule B4, the EC50 was 5.3 nM in experiment [2], 4.8 nM in experiment [7] and 5.4 nM in experiment [8]. In addition, in experiment [3], the Kd was 9.8 nM.

B5: P10 (lead optimized clone of 15B2GL) (antibody, V domains shown)
VH: EVQLVESGGGLVKPGGSLRLSCAASGFTFRSYSMNWVRQAPGKGLEWVSSISGQSNYIYYADSVKGRFTISRDNAKNSLYLQMNSLRAEDTAVYYCARGGNYYVEYFQYWGQGTLVTVSS
VL: EIVLTQSPGTLSLSPGERATLSCRASQYISSNYLAWYQQKPGQAPRLLIYGASNRATGIPDRFSGSGSGTDFTLTISRLEPEDFAVYYCQQYTDSPITFGQGTKLEIK
notes: as for B2
Molecule B5 came in with a Kd in experiment [3] of 5.3 nM.

B6: N22 (lead optimized clone of 15B2GL) (antibody, V domains shown)
VH: EVQLVESGGGLVKPGGSLRLSCAASGFTFSSYSMNWVRQAPGKGLEWVSSISGSSNYIYYADSVKGRFTISRDNAKNSLYLQMNSLRAEDTAVYYCARGGNYFVEYFQYWGQGTLVTVSS
VL: EIVLTQSPGTLSLSPGERATLSCRASQYISSNYLAWYQQKPGQAPRLLIYGASNRATGIPDRFSGSGSGTDFTLTISRLEPEDFAVYYCQQYSSSPITFGQGTKLEIK
notes: as for B2
B6: the Kd in experiment [3] was 16 nM.

B7: anti-BCMA antibody J6M0 (antibody, V domains shown)
VH: QVQLVQSGAEVKKPGSSVKVSCKASGGTFSNYWMHWVRQAPGQGLEWMGATYRGHSDTYYNQKFKGRVTITADKSTSTAYMELSSLRSEDTAVYYCARGAIYDGYDVLDNWGQGTLVTVSS
VL: DIQMTQSPSSLSASVGDRVTITCSASQDISNYLNWYQQKPGKAPKLLIYYTSNLHSGVPSRFSGSGSGTDFTLTISSLQPEDFATYYCQQYRKLPWTFGQGTKLEIK
In experiment [3], B7 displayed a Kd of 1 nM. The EC50 was 6.65 nM in experiment [7] and 6.02 nM in experiment [8].
